± gives the uncertainty stated by the source.
Assay: self-splicing fitness, log relative to wild type (ln ratio); higher = more splicing; Tetrahymena group I intron in knt gene, E. coli kanamycin selection, DiMSum; sequences stand for … in CUCUCU…GGAGGGAAAAGUUAUCAGGCAUGCACCUGGUAGCUAGUCUUUAAACCAAUAGAUUGCAUCGGUUUAAAAGGCAAGACCGUCAAAUUGCGGGAAAGGGGUCAACAGCCGUUCAGUACCAAGUCUCAGGGGAAACUUUGAGAUGGCCUUGCAAAGGGUAUGGUAAUAAGCUGACGGACAUGGUCCUAACCACGCAGCCAAGUCCUAAGUCAACAGAUCUUCUGUUGAUAUGGAUGCAGUUCACAGACUAAAUGUCGGUCGGGGAAGAUGUAUUCUUCUCAUAAGAUAUAGUCGGACCUCUCCUUAAUGGGAGCUAGCGGAUGAAGUGAUGCAACACUGGAGCCGCUGGGAACUAAUUUGUAUGCGAAAGUAUAUUGAUUAGUUUUGGAGUACUCGUGGUCG
Outline: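 Colonies from six replicate transformations of E. coli BL21(DE3) were pooled and amplicon-sequenced on an Illumina HiSeq 2500. The library placed an intron with all eight P1ex-region nucleotides randomised inside the knt kanamycin-resistance gene on pET-22b(+), and cells grew overnight at 37°C or 30°C on LB agar with or without 25 μg/mL kanamycin (plus 100 μg/mL carbenicillin, 50 μM IPTG, 0.2% rhamnose). Fitness is the DiMSum error-weighted combination of wild-type-normalised replicate fold changes, kanamycin versus none.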

| Sequence | self-splicing fitness (ln) (30 °C) | self-splicing fitness (ln) (37 °C) |
| --- | --- | --- |
| ACGAAGCAAUAUUACGGGGA | -2.81 ± 0.21 | -1.57 ± 0.16 |
| ACGAAGCAAUAUUACGGUAA | -2.49 ± 0.17 | -1.33 ± 0.14 |
| ACGAAGCAAUAUUACGGUCA | -1.35 ± 0.14 | -0.053 ± 0.13 |
| ACGAAGCAAUAUUACGUACG | -3.8 ± 0.33 | -0.988 ± 0.15 |
| ACGAAGCAAUAUUACGUCAC | -4.98 ± 0.39 | -2.43 ± 0.16 |
| ACGAAGCAAUAUUACGUCGU | -3.41 ± 0.29 | -3.5 ± 0.42 |
| ACGAAGCAAUAUUACGUGUC | -3.76 ± 0.15 | -2.7 ± 0.17 |
| ACGAAGCAAUAUUACGUUAC | -3.77 ± 0.4 | -1.17 ± 0.16 |
| ACGAAGCAAUAUUACGUUUA | -2.05 ± 0.11 | -0.875 ± 0.085 |
| ACGCAGCAAUAUUACGAAAA | -2.91 ± 0.23 | -2.7 ± 0.2 |
| ACGCAGCAAUAUUACGAAGU | -3.6 ± 0.27 | -0.721 ± 0.13 |
| ACGCAGCAAUAUUACGACAG | -1.11 ± 0.076 | -0.445 ± 0.099 |
| ACGCAGCAAUAUUACGACUU | -0.543 ± 0.077 | 0.0674 ± 0.09 |
| ACGCAGCAAUAUUACGAGUC | -4.93 ± 0.27 | -2.26 ± 0.18 |
| ACGCAGCAAUAUUACGAGUG | -2.14 ± 0.052 | -1.32 ± 0.062 |
| ACGCAGCAAUAUUACGAUAG | -4.2 ± 0.21 | -2.65 ± 0.19 |
| ACGCAGCAAUAUUACGCAAC | -3.91 ± 0.32 | -1.83 ± 0.18 |
| ACGCAGCAAUAUUACGCACC | -0.334 ± 0.18 | -0.22 ± 0.18 |
| ACGCAGCAAUAUUACGCAGG | – | -1.05 ± 0.15 |
| ACGCAGCAAUAUUACGCAGU | -3.29 ± 0.16 | -2.78 ± 0.21 |
| ACGCAGCAAUAUUACGCAUA | -2.18 ± 0.13 | -0.994 ± 0.12 |
| ACGCAGCAAUAUUACGCGGC | -3.37 ± 0.17 | -3.06 ± 0.25 |

| Sequence | self-splicing fitness (ln) (30 °C) | self-splicing fitness (ln) (37 °C) |
| --- | --- | --- |
| ACGCAGCAAUAUUACGCUCA | -0.563 ± 0.063 | 0.124 ± 0.088 |
| ACGCAGCAAUAUUACGCUGC | -3.38 ± 0.43 | -3.02 ± 0.29 |
| ACGCAGCAAUAUUACGGCCG | -1.66 ± 0.11 | -0.0837 ± 0.15 |
| ACGCAGCAAUAUUACGGGAG | -2.73 ± 0.11 | -1.62 ± 0.11 |
| ACGCAGCAAUAUUACGGGUC | -4.12 ± 0.21 | -2.92 ± 0.17 |
| ACGCAGCAAUAUUACGGUCA | -1.15 ± 0.069 | -0.339 ± 0.069 |
| ACGCAGCAAUAUUACGUAAA | -2.06 ± 0.12 | -1.95 ± 0.2 |
| ACGCAGCAAUAUUACGUAAU | -2.48 ± 0.083 | -2.13 ± 0.12 |
| ACGCAGCAAUAUUACGUCCG | -0.744 ± 0.085 | -0.408 ± 0.1 |
| ACGCAGCAAUAUUACGUUAG | -4.1 ± 0.16 | -2.46 ± 0.12 |
| ACGGAGCAAUAUUACGAAAU | -2.71 ± 0.22 | -1.76 ± 0.24 |
| ACGGAGCAAUAUUACGAAGA | – | -0.799 ± 0.24 |
| ACGGAGCAAUAUUACGAAUG | -3.88 ± 0.43 | -0.307 ± 0.27 |
| ACGGAGCAAUAUUACGACAC | -4.35 ± 0.42 | -1.94 ± 0.37 |
| ACGGAGCAAUAUUACGCAAG | -3.14 ± 0.27 | -1.79 ± 0.26 |
| ACGGAGCAAUAUUACGCACG | -3.77 ± 0.35 | -2.71 ± 0.37 |
| ACGGAGCAAUAUUACGCAUA | -3.27 ± 0.21 | -2.86 ± 0.22 |
| ACGGAGCAAUAUUACGGCCG | -1.98 ± 0.16 | -2.03 ± 0.28 |
| ACGGAGCAAUAUUACGGCUA | -1.96 ± 0.21 | -0.548 ± 0.14 |
| ACGGAGCAAUAUUACGGCUU | -3.11 ± 0.4 | – |
| ACGGAGCAAUAUUACGGGAA | -4.37 ± 0.36 | -2.03 ± 0.31 |

From the supplement of paper PMC7877785
